Results reported in patent US20190135918A1 (ICHNOS SCIENCES, published 2019).
Substitutions are numbered along the chain they refer to. Numbers in names are those of the source. One block for each binder: values may come before it.

Assays:
[1] = target: T1, human CD3 epsilon on cells (human, UniProt P07766 23-207); experiment: FACS staining of HPB-ALL cells, scFv-Fc format, graded relative to chimeric OKT3
T1 construct: whole, on cells; On cells it stands in the CD3/TCR complex; also called HPB-ALL cells (human CD3 epsilon positive T cell tumour line); CD3 on human T cells

[2] = target: T2, F6 (peptide-Fc fusion derived from the extracellular domain of human CD38) (human, UniProt P0DOX5 195-449 = IgG part); experiment: SPR
T2 construct: As F1; by count CD38 residues 108-120 (holds M110)

[3] = target: T3, F3 (peptide-Fc fusion derived from the extracellular domain of human CD38) (human, UniProt P0DOX5 223-449 = IgG part); experiment: SPR, SAR650984 on the chip, peptide-Fc fusion injected
T3 construct: As F1; by count CD38 residues 69-81; also called F3 construct

[4] = target: T4, soluble extracellular region of cynomolgus monkey CD38 antigen fused to a 6-His-tag (cynomolgus monkey, UniProt Q5VAN0 45-301); experiment: SPR (summary table, row 'KD cynomolgus monkey CD38 (nM)')
T4 construct: also called cynomolgus CD38

Protein A = target: T5, Protein A (Staphylococcus aureus, UniProt P38507 37-327); experiment: protein A affinity chromatography, eluate (A) and flow-through (A ft) on non-reducing SDS-PAGE
T5 construct: Resin ligands (MabSelect, MabSelect SuRe) are recombinant or engineered forms; also called protein A chromatography

Protein G = target: T6, Protein G (UniProt P06654 228-352); experiment: protein G affinity chromatography, eluate (G) and flow-through (G ft) on non-reducing SDS-PAGE
T6 construct: also called protein G chromatography
T6 sequence (P06654 228-352): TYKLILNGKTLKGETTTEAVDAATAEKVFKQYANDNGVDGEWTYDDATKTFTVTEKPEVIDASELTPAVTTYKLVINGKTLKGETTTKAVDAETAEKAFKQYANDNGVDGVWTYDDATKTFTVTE

human CD38 on cells = human CD38 on cells (human, UniProt P28907 1-300); experiment: cell-based or functional assay
[5] = target: T7, human CD3 epsilon 1-26_Fc fusion protein (human); experiment: SPR, CD3 epsilon 1-26 Fc coupled to the chip, antibody injected
T7 construct: also called human CD3 1-26_Fc fusion protein

binding result [1]: binds
B1: VH8-VL4 (scFv)
scFv-Fc chain: EVQLVESGGGLVQPGGSLRLSCAASGYTFTRYTMHWVRQAPGKGLEWIGYINPSRGYTYYADSVKGRFTLSTDKSKNTAYLQMNSLRAEDTAVYYCARYYDDHYCLDYWGQGTLVTVSSGGGGSGGGGSGGGGSGGGASDIQLTQSPSSLSASVGDRVTITCRASSSVSYVAWYQQKPGKAPKRWIYDTSKLYSGVPSRFSGSRSGTDYTLTISSLQPEDFATYYCQQWSSNPPTFGQGTKVEIK
notes: also called humanized OKT3 VH8-VL4 scFv-Fc fusion; hOKT3 VH8-VL4 scFv Fc

binding result [1]: binds
B2: VH8-VL8 (scFv)
scFv-Fc chain: B1 scFv-Fc chain with R204G
notes: also called humanized OKT3 VH8-VL8 scFv-Fc fusion; hOKT3 VH8-VL8 scFv Fc

binding result [2]: binds | binding result [3]: no binding (tested: not printed)
B3: SAR650984 antibody (antibody, human IgG1, kappa, V domains shown)
VH: QVQLVQSGAEVAKPGTSVKLSCKASGYTFTDYWMQWVKQRPGQGLEWIGTIYPGDGDTGYAQKFQGKATLTADKSSKTVYMHLSSLASEDSAVYYCARGDYYGSNSLDYWGQGTSVTVSS
VL: DIVMTQSHLSMSTSLGDPVSITCKASQDVSTVVAWYQQKPGQSPRRLIYSASYRYIGVPDRFTGSGAGTDFTFTISSVQAEDLAVYYCQQHYSPPYTFGGGTKLEIKR
notes: also called humanized SAR650984 antibody

Kd [4]: 1 nM
B4: chimeric 9G7 antibody (antibody, human IgG1, kappa, V domains shown)
VH: QVTLKESGPGILQPSQTLSLTCSFSGLSLSTSGKGVGWIRQPSGKGLEWLAHIWWDDDKRYNPALKSRLTISKDTSSNQVFLKIASVDTADTATYYCARIELGRSYVMDYWGQGTTVTVSS
VL: DIVMTQSHKFMSTSVGDRVSISCKASQDVITSVAWFQQKPGQSPKLLIYSASYRYTGVPDRFTGSGSGTDFTFTISSVQAEDLAVYYCQQHYTIPLTFGAGTKLELKR

binding result (Protein A): no binding | binding result (Protein G): no binding
B5: BTB homodimer construct lacking the VH3 based scFv (other)
chain: DKTHTCPPCPAPEAAGGPSVFLFPPKPKDTLMISRTPEVTCVVVDVSHEDPEVKFNWYVDGVEVHNAKTKPREEQYNSTYRVVSVLTVLHQDWLNGKEYKCKVSNKALPAPIEKTISKAKGQPREPEVATFPPSRDELTKNQVTLVCLVTGFYPSDIAVEWESNGQPENNYKTDPPLLESQGSFALSSRLRVDKSRWQQGNVFSCSVMHEALHNHYTQKSLSLSPGK
notes: Human IgG1 Fc region with the BTB CH3 domain carrying D401Q

B6: BEAT CD38-OKT10Mouse/CD3 (bispecific antibody, human IgG1, kappa, L234A L235A)
heavy: QVELVESGGSLKLSCAASGFDFSRSWMNWVRQAPGKGLEWIGEINPDSSTINYTTSLKDKFIISRDNAKNTLYLQMTKVRSEDTALYYCARYGNWFPYWGQGTLVTVSSASTKGPSVFPLAPSSKSTSGGTAALGCLVKDYFPEPVTVSWNSGALTSGVHTFPAVLQSSGLYSLSSVVTVPSSSLGTQTYICNVNHKPSNTKVDKKVEPKSCDKTHTCPPCPAPEAAGGPSVFLFPPKPKDTLMISRTPEVTCVVVDVSHEDPEVKFNWYVDGVEVHNAKTKPREEQYNSTYRVVSVLTVLHQDWLNGKEYKCKVSNKALPAPIEKTISKAKGQPREPAVYTLPPSRDELTKNQVKLVCLVTGFYPSDIAVEWESNGQPENNYYTTPPVLDSDGSFSLVSWLNVDKSRWQQGNVFSCSVMHEALHNHYTQKSLSLSPGK
light: DILMTQSQKIMPTSVGDRVSVTCKASQNVDTNVAWYQQKPGQSPKALIYSASYRYSGVPDRFTGSGSGTDFTLTITNVQSEDLAEYFCQQYDSYPLTFGAGTKLDLKRTVAAPSVFIFPPSDEQLKSGTASVVCLLNNFYPREAKVQWKVDNALQSGNSQESVTEQDSKDSTYSLSSTLTLSKADYEKHKVYACEVTHQGLSSPVTKSFNRGE
chain: EVQLVESGGGLVQPGGSLRLSCAASGYTFTRYTMHWVRQAPGKGLEWIGYINPSRGYTYYADSVKGRFTLSTDKSKNTAYLQMSSLRAEDTAVYYCARYYDDHYCLDYWGQGTLVTVSSGGGGSGGGGSGGGGSDIQLTQSPSSLSASVGDRVTITCRASSSVSYVAWYQQKPGKAPKRWIYDTSKLYSGVPSRFSGSGSGTDYTLTISSLQPEDFATYYCQQWSSNPPTFGQGTKVEIKGGGGTDKTHTCPPCPAPEAAGGPSVFLFPPKPKDTLMISRTPEVTCVVVDVSHEDPEVQFKWYVDGVEVHNAKTKPREEQYNSTFRVVSVLTVLHQDWLNGKEYKCKVSNKALPAPIEKTISKTKGQPREPEVATFPPSREEMTKNQVTLVCLVTGFYPSDIAVEWESSGQPENNYNTDPPLLESDGSFALSSRLRVDKSRWQQGNIFSCSVMHEALHNRFTQKSLSLSPGK
killing assay against Daudi cells, flow cytometry readout, EC50 (pM) (human CD38 on cells): 126 pM

Kd [5]: 18 nM
B7: BEAT CD38-9G7best-fit/CD3(SP34-Kappa2) antibody (bispecific antibody)
heavy: QVTLKESGPTLVKPTQTLTLTCTFSGLSLSTSGKGVGWIRQPPGKALEWLAHIWWDDDKRYNPALKSRLTITKDTSKNQVVLTMTNMDPVDTATYYCARIELGRSYVMDYWGQGTLVTVSSASTKGPSVFPLAPSSKSTSGGTAALGCLVKDYFPEPVTVSWNSGALTSGVHTFPAVLQSSGLYSLSSVVTVPSSSLGTQTYICNVNHKPSNTKVDKKVEPKSCDKTHTCPPCPAPEAAGGPSVFLFPPKPKDTLMISRTPEVTCVVVDVSHEDPEVQFKWYVDGVEVHNAKTKPREEQYNSTFRVVSVLTVLHQDWLNGKEYKCKVSNKALPAPIEKTISKTKGQPREPAVYTLPPSREEMTKNQVKLVCLVTGFYPSDIAVEWESSGQPENNYYTTPPMLDSDGSFSLVSWLNVDKSRWQQGNIFSCSVMHEALHNRFTQKSLSLSPGK
light: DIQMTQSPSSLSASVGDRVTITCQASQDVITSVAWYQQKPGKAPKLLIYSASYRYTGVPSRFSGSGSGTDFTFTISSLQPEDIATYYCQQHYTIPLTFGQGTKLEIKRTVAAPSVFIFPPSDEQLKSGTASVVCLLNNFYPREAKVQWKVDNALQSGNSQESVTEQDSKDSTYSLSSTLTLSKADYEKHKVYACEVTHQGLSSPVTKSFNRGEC
chain: EVQLVESGGGLVQPGGSLRLSCAASGFTFNTYAMNWVRQAPGKGLEWVARIRSKYNNYATYYADSVKGRFTISRDDSKNTLYLQMNSLRAEDTAVYYCVRHGNFGNSYVSYFAYWGQGTTVTVSSGGGGSGGGGSGGGGSEIVVTQSPATLSVSPGERATLSCRSSTGAVTAANYANWVQEKPGQAFRGLIGGANKRAPGVPARFSGSLSGDEATLTISSLQSEDFAVYYCALFYSNLWVFGQGTKLEIKGGGGTDKTHTCPPCPAPEAAGGPSVFLFPPKPKDTLMISRTPEVTCVVVDVSHEDPEVKFNWYVDGVEVHNAKTKPREEQYNSTYRVVSVLTVLHQDWLNGKEYKCKVSNKALPAPIEKTISKAKGQPREPEVATFPPSRDELTKNQVTLVCLVTGFYPSDIAVEWESNGQPENNYKTDPPLLESQGSFALSSRLRVDKSRWQQGNVFSCSVMHEALHNHYTQKSLSLSPG
notes: Third chain is the anti-CD3 epsilon scFv BEAT heavy chain with humanized SP34 VH5/VL32; also called 9G7xSP34(GV2)
